This assay has as its target T1, FcγRIa extracellular domain with C-terminal His tag (human, UniProt P12314 16-292).
T1 construct: extracellular domain; also called FcgRI; CD64; not shown: His tag at the C terminus
The assay can be described thus: SPR Biacore, relative FcγRIa binding vs GpH7-B3/GpL16-k0.

T1 sequence (P12314 16-292): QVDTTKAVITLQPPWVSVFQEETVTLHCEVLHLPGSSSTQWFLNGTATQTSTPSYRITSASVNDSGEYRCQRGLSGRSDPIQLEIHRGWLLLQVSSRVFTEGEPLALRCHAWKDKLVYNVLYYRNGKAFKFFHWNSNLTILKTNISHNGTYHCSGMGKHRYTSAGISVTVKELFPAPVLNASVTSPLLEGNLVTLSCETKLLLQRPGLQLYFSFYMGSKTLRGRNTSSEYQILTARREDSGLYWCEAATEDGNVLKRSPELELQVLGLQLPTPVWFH

B1: GpH7-B3 variant S298_19Q/GpL16-k0 (antibody, human IgG1, kappa)
heavy: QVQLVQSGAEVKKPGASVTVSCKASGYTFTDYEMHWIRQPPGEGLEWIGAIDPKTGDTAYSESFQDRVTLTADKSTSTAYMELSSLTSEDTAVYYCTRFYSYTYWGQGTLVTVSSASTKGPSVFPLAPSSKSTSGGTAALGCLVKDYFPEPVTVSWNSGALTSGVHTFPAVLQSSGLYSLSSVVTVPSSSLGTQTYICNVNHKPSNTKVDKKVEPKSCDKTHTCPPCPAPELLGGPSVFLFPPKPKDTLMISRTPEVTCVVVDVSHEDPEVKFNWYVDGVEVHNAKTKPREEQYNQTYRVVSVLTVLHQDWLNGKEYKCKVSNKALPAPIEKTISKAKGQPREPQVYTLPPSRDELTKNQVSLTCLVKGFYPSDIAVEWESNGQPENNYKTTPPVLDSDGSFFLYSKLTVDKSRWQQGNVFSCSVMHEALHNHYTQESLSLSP
light: DIVMTQSPLSLPVTPGEPASISCQASESLVHSNRNTYLHWYLQKPGQSPQLLIYKVSNRFSGVPDRFSGSGSGTDFTLKISRVEAEDVGVYYCSQNTHVPPTFGQGTKVEIERTVAAPSVFIFPPSDEQLKSGTASVVCLLNNFYPREAKVQWKVDNALQSGNSQESVTEQDSKDSTYSLSSTLTLSKADYEKHKVYACEVTHQGLSSPVTKSFNRGEC
notes: mutation in both H chains; also called Ho Ab S298_19Q; S298Q
For the molecule B1, the Ho/Con_1a is 105 % of HoCon Ab (=100).

B2: GpH7-B3 variant S324_11K/GpL16-k0 (antibody, human IgG1, kappa)
heavy: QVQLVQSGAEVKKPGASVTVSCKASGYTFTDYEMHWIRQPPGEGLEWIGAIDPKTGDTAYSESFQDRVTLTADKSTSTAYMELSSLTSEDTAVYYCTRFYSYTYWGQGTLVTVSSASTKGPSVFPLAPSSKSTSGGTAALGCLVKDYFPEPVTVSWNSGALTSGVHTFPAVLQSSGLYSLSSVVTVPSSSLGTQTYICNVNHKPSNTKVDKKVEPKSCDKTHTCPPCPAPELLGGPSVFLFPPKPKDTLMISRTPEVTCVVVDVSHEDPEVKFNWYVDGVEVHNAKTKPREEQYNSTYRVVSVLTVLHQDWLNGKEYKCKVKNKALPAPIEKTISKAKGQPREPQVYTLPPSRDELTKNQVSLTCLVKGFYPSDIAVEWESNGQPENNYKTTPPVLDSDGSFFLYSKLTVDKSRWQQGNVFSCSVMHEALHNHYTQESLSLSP
light: DIVMTQSPLSLPVTPGEPASISCQASESLVHSNRNTYLHWYLQKPGQSPQLLIYKVSNRFSGVPDRFSGSGSGTDFTLKISRVEAEDVGVYYCSQNTHVPPTFGQGTKVEIERTVAAPSVFIFPPSDEQLKSGTASVVCLLNNFYPREAKVQWKVDNALQSGNSQESVTEQDSKDSTYSLSSTLTLSKADYEKHKVYACEVTHQGLSSPVTKSFNRGEC
notes: mutation in both H chains; also called Ho Ab S324_11K; S324K
Turning to B2, the Ho/Con_1a is 100 % of HoCon Ab (=100).

B3: GpH7-B3 variant S324_02A/GpL16-k0 (antibody, human IgG1, kappa)
heavy: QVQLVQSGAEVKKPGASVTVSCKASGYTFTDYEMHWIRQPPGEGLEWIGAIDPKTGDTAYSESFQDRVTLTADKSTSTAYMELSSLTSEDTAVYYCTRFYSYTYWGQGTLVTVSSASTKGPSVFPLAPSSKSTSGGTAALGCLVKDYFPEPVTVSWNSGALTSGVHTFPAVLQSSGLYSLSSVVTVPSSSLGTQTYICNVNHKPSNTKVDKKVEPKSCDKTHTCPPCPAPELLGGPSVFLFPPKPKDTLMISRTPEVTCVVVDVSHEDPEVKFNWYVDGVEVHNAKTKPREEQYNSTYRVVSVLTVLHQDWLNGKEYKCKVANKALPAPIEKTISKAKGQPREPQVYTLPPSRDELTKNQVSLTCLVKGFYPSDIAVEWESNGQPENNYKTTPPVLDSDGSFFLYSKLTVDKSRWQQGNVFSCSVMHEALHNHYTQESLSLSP
light: DIVMTQSPLSLPVTPGEPASISCQASESLVHSNRNTYLHWYLQKPGQSPQLLIYKVSNRFSGVPDRFSGSGSGTDFTLKISRVEAEDVGVYYCSQNTHVPPTFGQGTKVEIERTVAAPSVFIFPPSDEQLKSGTASVVCLLNNFYPREAKVQWKVDNALQSGNSQESVTEQDSKDSTYSLSSTLTLSKADYEKHKVYACEVTHQGLSSPVTKSFNRGEC
notes: mutation in both H chains; also called Ho Ab S324_02A; S324A
Regarding B3, the Ho/Con_1a is 103 % of HoCon Ab (=100).

B4: GpH7-B3 variant S298_20W/GpL16-k0 (antibody, human IgG1, kappa)
heavy: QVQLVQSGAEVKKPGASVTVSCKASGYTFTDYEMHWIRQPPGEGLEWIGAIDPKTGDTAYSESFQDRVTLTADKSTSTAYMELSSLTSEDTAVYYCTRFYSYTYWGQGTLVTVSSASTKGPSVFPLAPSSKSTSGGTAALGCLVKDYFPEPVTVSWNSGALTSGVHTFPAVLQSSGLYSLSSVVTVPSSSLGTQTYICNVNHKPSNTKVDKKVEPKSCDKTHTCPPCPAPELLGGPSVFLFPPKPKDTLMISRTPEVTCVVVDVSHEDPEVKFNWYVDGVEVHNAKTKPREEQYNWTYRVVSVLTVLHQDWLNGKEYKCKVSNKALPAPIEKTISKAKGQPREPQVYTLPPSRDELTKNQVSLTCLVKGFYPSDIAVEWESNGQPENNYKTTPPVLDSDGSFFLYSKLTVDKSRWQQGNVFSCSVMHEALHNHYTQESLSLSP
light: DIVMTQSPLSLPVTPGEPASISCQASESLVHSNRNTYLHWYLQKPGQSPQLLIYKVSNRFSGVPDRFSGSGSGTDFTLKISRVEAEDVGVYYCSQNTHVPPTFGQGTKVEIERTVAAPSVFIFPPSDEQLKSGTASVVCLLNNFYPREAKVQWKVDNALQSGNSQESVTEQDSKDSTYSLSSTLTLSKADYEKHKVYACEVTHQGLSSPVTKSFNRGEC
notes: mutation in both H chains; also called Ho Ab S298_20W; S298W
Regarding B4, the Ho/Con_1a is 71.5 % of HoCon Ab (=100).

B5: GpH7-B3 variant S324_14T/GpL16-k0 (antibody, human IgG1, kappa)
heavy: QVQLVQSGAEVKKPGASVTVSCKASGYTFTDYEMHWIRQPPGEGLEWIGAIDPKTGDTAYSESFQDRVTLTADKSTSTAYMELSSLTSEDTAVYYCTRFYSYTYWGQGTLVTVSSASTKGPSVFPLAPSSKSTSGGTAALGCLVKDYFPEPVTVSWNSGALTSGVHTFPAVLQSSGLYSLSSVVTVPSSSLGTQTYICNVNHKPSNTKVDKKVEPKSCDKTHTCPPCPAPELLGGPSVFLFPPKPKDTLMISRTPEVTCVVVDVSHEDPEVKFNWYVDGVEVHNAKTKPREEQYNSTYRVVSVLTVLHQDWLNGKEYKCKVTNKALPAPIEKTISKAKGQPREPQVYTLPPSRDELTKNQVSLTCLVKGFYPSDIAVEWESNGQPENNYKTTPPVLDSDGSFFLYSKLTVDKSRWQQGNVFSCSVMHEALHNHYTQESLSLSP
light: DIVMTQSPLSLPVTPGEPASISCQASESLVHSNRNTYLHWYLQKPGQSPQLLIYKVSNRFSGVPDRFSGSGSGTDFTLKISRVEAEDVGVYYCSQNTHVPPTFGQGTKVEIERTVAAPSVFIFPPSDEQLKSGTASVVCLLNNFYPREAKVQWKVDNALQSGNSQESVTEQDSKDSTYSLSSTLTLSKADYEKHKVYACEVTHQGLSSPVTKSFNRGEC
notes: mutation in both H chains; also called Ho Ab S324_14T; S324T
In the case of B5, the Ho/Con_1a is 112 % of HoCon Ab (=100).

B6: GpH7-B3 variant S324_03V/GpL16-k0 (antibody, human IgG1, kappa)
heavy: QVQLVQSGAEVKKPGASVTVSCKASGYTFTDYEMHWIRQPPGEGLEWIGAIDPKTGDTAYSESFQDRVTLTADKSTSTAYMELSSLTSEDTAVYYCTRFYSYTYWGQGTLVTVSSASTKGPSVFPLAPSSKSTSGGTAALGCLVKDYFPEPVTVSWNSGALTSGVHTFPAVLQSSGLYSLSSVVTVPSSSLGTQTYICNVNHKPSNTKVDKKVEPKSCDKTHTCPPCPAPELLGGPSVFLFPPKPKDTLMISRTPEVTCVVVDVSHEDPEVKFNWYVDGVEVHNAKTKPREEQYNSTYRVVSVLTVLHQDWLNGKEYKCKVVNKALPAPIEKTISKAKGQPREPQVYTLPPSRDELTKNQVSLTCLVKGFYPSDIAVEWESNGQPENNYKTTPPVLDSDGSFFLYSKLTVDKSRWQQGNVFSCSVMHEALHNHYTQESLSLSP
light: DIVMTQSPLSLPVTPGEPASISCQASESLVHSNRNTYLHWYLQKPGQSPQLLIYKVSNRFSGVPDRFSGSGSGTDFTLKISRVEAEDVGVYYCSQNTHVPPTFGQGTKVEIERTVAAPSVFIFPPSDEQLKSGTASVVCLLNNFYPREAKVQWKVDNALQSGNSQESVTEQDSKDSTYSLSSTLTLSKADYEKHKVYACEVTHQGLSSPVTKSFNRGEC
notes: mutation in both H chains; also called Ho Ab S324_03V; S324V
Regarding B6, the Ho/Con_1a was 103 % of HoCon Ab (=100).

B7: GpH7-B3 variant S324_08L/GpL16-k0 (antibody, human IgG1, kappa)
heavy: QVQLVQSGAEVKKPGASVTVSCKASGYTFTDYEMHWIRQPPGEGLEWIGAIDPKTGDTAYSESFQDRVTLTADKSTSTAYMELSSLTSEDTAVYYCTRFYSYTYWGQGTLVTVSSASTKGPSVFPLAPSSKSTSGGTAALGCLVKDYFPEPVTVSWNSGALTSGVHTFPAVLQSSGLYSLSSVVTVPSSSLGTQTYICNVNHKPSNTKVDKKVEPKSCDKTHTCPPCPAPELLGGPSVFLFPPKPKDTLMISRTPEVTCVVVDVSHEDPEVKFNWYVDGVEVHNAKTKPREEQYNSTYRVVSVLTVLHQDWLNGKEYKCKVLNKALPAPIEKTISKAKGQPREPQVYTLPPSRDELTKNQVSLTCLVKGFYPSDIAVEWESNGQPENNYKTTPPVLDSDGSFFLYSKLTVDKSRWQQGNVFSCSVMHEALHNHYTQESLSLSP
light: DIVMTQSPLSLPVTPGEPASISCQASESLVHSNRNTYLHWYLQKPGQSPQLLIYKVSNRFSGVPDRFSGSGSGTDFTLKISRVEAEDVGVYYCSQNTHVPPTFGQGTKVEIERTVAAPSVFIFPPSDEQLKSGTASVVCLLNNFYPREAKVQWKVDNALQSGNSQESVTEQDSKDSTYSLSSTLTLSKADYEKHKVYACEVTHQGLSSPVTKSFNRGEC
notes: mutation in both H chains; also called Ho Ab S324_08L; S324L
Regarding B7, the Ho/Con_1a is 103 % of HoCon Ab (=100).

B8: GpH7-B3 variant S324_12R/GpL16-k0 (antibody, human IgG1, kappa)
heavy: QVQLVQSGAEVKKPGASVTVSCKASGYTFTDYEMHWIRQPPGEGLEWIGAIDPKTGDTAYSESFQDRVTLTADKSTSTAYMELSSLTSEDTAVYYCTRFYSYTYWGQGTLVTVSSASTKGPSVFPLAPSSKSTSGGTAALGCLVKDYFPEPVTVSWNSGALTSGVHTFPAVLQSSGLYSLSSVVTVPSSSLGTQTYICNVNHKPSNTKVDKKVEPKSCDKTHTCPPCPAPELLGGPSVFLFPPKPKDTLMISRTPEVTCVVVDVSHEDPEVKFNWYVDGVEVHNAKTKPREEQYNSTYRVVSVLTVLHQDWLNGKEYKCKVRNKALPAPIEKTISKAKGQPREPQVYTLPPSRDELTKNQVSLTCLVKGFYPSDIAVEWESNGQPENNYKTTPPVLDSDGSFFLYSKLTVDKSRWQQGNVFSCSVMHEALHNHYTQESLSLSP
light: DIVMTQSPLSLPVTPGEPASISCQASESLVHSNRNTYLHWYLQKPGQSPQLLIYKVSNRFSGVPDRFSGSGSGTDFTLKISRVEAEDVGVYYCSQNTHVPPTFGQGTKVEIERTVAAPSVFIFPPSDEQLKSGTASVVCLLNNFYPREAKVQWKVDNALQSGNSQESVTEQDSKDSTYSLSSTLTLSKADYEKHKVYACEVTHQGLSSPVTKSFNRGEC
notes: mutation in both H chains; also called Ho Ab S324_12R; S324R
Regarding B8, the Ho/Con_1a was 101 % of HoCon Ab (=100).
